Reference: PMC3981948 (Mucosal immunology, 2013)
Changes are numbered by the printed parent chain.

How the values were obtained:
[1] = target: T1, purified CEACAM5 mutant N70,81A (human, UniProt P06731-1 35-685, N70,81A | N70,81A); assay: SPR
T1 sequence (looked up): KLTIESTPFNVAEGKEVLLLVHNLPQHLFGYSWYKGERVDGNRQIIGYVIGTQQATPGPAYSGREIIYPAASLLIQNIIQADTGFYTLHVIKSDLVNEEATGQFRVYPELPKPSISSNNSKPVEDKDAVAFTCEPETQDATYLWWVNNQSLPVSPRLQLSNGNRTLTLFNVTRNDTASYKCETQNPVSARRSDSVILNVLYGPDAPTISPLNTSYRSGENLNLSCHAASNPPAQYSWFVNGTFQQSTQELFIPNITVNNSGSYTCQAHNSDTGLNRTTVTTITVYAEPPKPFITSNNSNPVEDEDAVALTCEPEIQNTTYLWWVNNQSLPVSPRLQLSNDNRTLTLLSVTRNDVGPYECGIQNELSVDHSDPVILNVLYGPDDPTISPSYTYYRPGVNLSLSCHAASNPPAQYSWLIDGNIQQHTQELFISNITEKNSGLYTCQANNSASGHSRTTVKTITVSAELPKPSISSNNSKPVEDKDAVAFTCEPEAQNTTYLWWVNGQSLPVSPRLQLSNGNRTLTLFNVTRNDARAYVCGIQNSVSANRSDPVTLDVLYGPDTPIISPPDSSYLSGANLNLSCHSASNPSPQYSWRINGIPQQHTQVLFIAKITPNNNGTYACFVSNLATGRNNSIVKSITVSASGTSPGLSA

[2] = target: T2, purified wild type CEACAM5 (human, UniProt P06731-1 35-685); assay: SPR
T2 sequence (looked up): T1 sequence (looked up) with A70N, A81N

Kd [1]: 16 µM
koff [1]: 0.0047 s⁻¹
kon [1]: 290 M⁻¹ s⁻¹
Kd [2]: 0.022 µM
koff [2]: 0.00056 s⁻¹
kon [2]: 26000 M⁻¹ s⁻¹
B1: purified extracellular domain of CD8α (domain or fragment)
chain: not shown
